This note sets out measurements from patent US20240197877A1 (published 2024).

This assay deals with T1, MYO1G (HA-2 SNP; MYO1G(M) variant) peptide on HLA-A*02:01 (human).
T1 peptide: YIGEVLVSM
Put plainly: multimer staining.

Where a chain is given by its changes, count along the chain named.

B1: HA2-MJ13-SP43 (TCR, V domains shown)
Valpha: QKEVEQNSGPLSVPEGAIASLNCTYSDRGSQSFFWYRQYSGKSPELIMFIYSNGDKEDGRFTAQLNKASQYVSLLIRDSQPSDSATYLCAVKGAGYSTLTFGKGTMLLVSP
Vbeta: NAGVTQTPKFQVLKTGQSMTLQCAQDMNHEYMSWYRQDPGMGLRLIHYSVGAGITDQGEVPNGYNVSRSTTEDFPLRLLSAAPSQTSVYFCASSDGGALAYFGPGTRLTVL
For B1, the binding result is on record as “no recognition”.

B2: HA2-MJ14-SP4 (TCR, V domains shown)
Valpha: B1 Valpha with K92R, G93R, A94S
Vbeta: NAGVTQTPKFQVLKTGQSMTLQCAQDMNHEYMSWYRQDPGMGLRLIHYSVGAGITDQGEVPNGYNVSRSTTEDFPLRLLSAAPSQTSVYFCASSLGAEAFFGQGTRLTVV
As for B2, the binding result is “no recognition”.
